For orientation: stoichiometry N means the number of molecules, sites or subunits per partner or assembly.

Among the data in PMC5726920 are stoichiometry N values, retold here.

The target in experiment [1] is 10 kDa heat shock protein. Kind of experiment: native MS.
Experiment [2] has as its target triosephosphate isomerase, isoform 2, initiator methionine removed. Kind of experiment: native MS.

Chain of triosephosphate isomerase, isoform 2, initiator methionine removed (enzyme) (P60174 2-249): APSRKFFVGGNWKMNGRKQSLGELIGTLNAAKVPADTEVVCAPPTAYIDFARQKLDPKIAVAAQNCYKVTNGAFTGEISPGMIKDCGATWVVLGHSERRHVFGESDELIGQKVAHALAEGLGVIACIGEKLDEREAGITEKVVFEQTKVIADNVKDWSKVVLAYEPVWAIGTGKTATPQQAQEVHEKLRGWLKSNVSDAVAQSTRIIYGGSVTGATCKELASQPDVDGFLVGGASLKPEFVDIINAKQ

In the case of “10 kDa heat shock protein (natural protein)”, the stoichiometry N in experiment [1] stood at 7.

In turn, “triosephosphate isomerase, isoform 2, initiator methionine removed (enzyme)” registered a stoichiometry N in experiment [2] of 2.
